Consider 40 sequences from the supplement of paper PMC9170038.

In series [1] the test system is MS2 coat protein. As to the kind of experiment: apparent KD of MS2 coat protein, switch ON state; designed switch direction (-1 OFF switch, 1 ON switch): -1; higher = weaker reporter binding. The note with it: FMN input: 0 or 200 uM; Eterna round: R93 (includes R88 designs). Summed up: (§1)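 Designed RNA switches were made by on-chip transcription from Illumina sequencing clusters and then titrated with SNAP-549-labelled MS2 coat protein. Twofold steps ran from 0.7 or 1.5 nM to 3 µM, each lasting 0.8–1.5 h early and 10–20 min late, in 100 mM Tris-HCl pH 7.5, 80 mM KCl, 4 mM MgCl2, without or with constant ligand. Apparent KD is the per-design median of normalised cluster binding-curve fits.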

For series [2], the system named is MS2 coat protein. As to the kind of experiment: apparent KD of MS2 coat protein, switch OFF state (with FMN for OFF switches, without FMN for ON switches); designed switch direction (-1 OFF switch, 1 ON switch): -1; higher = weaker reporter binding. As to conditions: FMN input: 0 or 200 uM; Eterna round: R93 (includes R88 designs). Summed up:
as §1

As to “AAGGUACGAGGAUAUACAUAGAUACAGACACAUGUUCAUGUACAUGAGGAUCACCCAUGUAGAAGGCGUAUAUA [AJ 17]”, the “apparent KD of MS2 coat protein” value in the series with MS2 coat protein [1] came out at 56.7 nM; in the series on MS2 coat protein [2], 147 nM.
As to “AAGUAGGUAGGAUAUACAUAGAUACAGAUUCAUGUGGAACUACAUGAGGAUCACCCAUGUAGAAGGACCUAAUA [AJ 40]”, the “apparent KD of MS2 coat protein” value is 30.2 nM in the series with MS2 coat protein [1] and 126 nM in the series on MS2 coat protein [2].
For the sequence “AAGUUAUUAGGAUAUACUUGUGCGAUUAAUACGUUGAUAGUACAUGAGGAUCACCCAUGUAGAAGGAAUAAAAA [JR_Exc002_Sub411]”, the results for the “apparent KD of MS2 coat protein” value with MS2 coat protein [1] and in the series with MS2 coat protein [2] were 38.4 nM and 25.9 nM, respectively.
On to “AAUAAACAUGAGGAUCACCCAUGUCAGGAUAUGCAUCUAACCUAAUAACAUAAAUACAGCAGAAGGGACUAAUA [JR_Exc001_Sub602]”, for which the “apparent KD of MS2 coat protein” value in the series on MS2 coat protein [1] is 26.8 nM; in the series on MS2 coat protein [2], 25 nM.
For “AAUAAACAUGAGGAUCACCCAUGUGAGGAUAUACAAAUAAAUAAAAAUAAAAUAAAAAGUAGAAGGCACAAUAA [JR_Exc001_Sub001]”, the “apparent KD of MS2 coat protein” value worked out at 23.5 nM in the series with MS2 coat protein [1] and 27.8 nM in the series on MS2 coat protein [2].
As to “AAUAAACAUGAGGAUCACCCAUGUGAGGAUAUGGUAUAAUAAGGACAGUAAUGAUAAACCAGAAGGCACAAAUA [JR_Exc001_Sub1102]”, the results for the “apparent KD of MS2 coat protein” value with MS2 coat protein [1] and with MS2 coat protein [2] were 30.5 nM and 34.7 nM, respectively.
For “AAUAACACAGGAUAUACUAAAGAAAUGAAAAGAAAUAAAGAACAUGAGGAUCACCCAUGUAGAAGGGUGAAUAA [Shenshek]”, the “apparent KD of MS2 coat protein” value is 204 nM with MS2 coat protein [1] and 186 nM in the series on MS2 coat protein [2].
In the case of “AAUAAGUCAGGAUAUACUAAAGAAAUGAAAAGGGAUAAAGAACAUGAGGAUCACCCAUGUAGAAGGGACAAUAA [Sakir-Har]”, the “apparent KD of MS2 coat protein” value in the series on MS2 coat protein [1] came to 93.2 nM; in the series with MS2 coat protein [2], 51.6 nM.
Consider “AAUACACAUGAGGAUCACCCAUGUAAGGAUAUCGAAAAAAAAAUAAACAAAAAACAAACGAGAAGGUACAAAAA [Exclusion 1 design 3]”, for which the “apparent KD of MS2 coat protein” value with MS2 coat protein [1] was 33.2 nM; in the series with MS2 coat protein [2], 33.6 nM.
With “AAUUCACAUGAGGAUCACCCAUGUAAGGAUAUCGAAAAAAAACUAAACAAAAAACAAACGAGAAGGUACAAAAA [Exclusion 1 design 5]”, the figures for the “apparent KD of MS2 coat protein” value in the series on MS2 coat protein [1] and in the series on MS2 coat protein [2] were 25.5 nM and 31.6 nM, respectively.
In the same order, the values of “AAUUCACAUGAGGAUCACCCAUGUAAGGAUAUCGAAAUAAAACUAAUCAAUAAACAAACGAGAAGGUACAAAAA [Exclusion 1 design 8]” are 20.4 nM and 24 nM.
“ACAAGCCUAGGAUAUACAUGAGGAUCACCCAUGUGAAAGAACCGGUGACUCCUGGAAAGUAGAAGGAGGAAUCG [Biatla]”: the “apparent KD of MS2 coat protein” value with MS2 coat protein [1] was 44.7 nM; in the series on MS2 coat protein [2], 40.1 nM.
On to “ACAAGGUCAGGAUAUACAUGAGGAUCACCCAUGUGAGAAUUCGAUUAAAACACACAAAGUAGAAGGGACCAGGA [Ruby 83]”, for which the “apparent KD of MS2 coat protein” value in the series with MS2 coat protein [1] worked out at 22 nM; in the series with MS2 coat protein [2], 33.6 nM.
Consider “ACCAAUGGAGGAUAUACAUGAGGAUCACCCAUGUUUAUCCUACAUAGGUGAAAAACAUGUAGAAGGCCAUAGGA [EX3 237: Super Stable 37]”, for which the “apparent KD of MS2 coat protein” value with MS2 coat protein [1] turned out to be 11.1 nM; in the series with MS2 coat protein [2] it was 12 nM.
The like results for “ACCAAUGGAGGAUAUACAUGAGGAUCACCCAUGUUUAUCCUACAUAGGUGAAAAAUAUGUAGAAGGCCAUAGGA [EX3 238: Super Stable 38]” were, in that order, 13.2 nM and 10.8 nM.
In the case of “ACCUGACAUGAGGAUCACCCAUGUCAGGAUAUGACUUCGAAAAAAAAAAAAAACGAUGUCAGAAGGGACAUGGG [Design 70: Sub-opt P]”, the “apparent KD of MS2 coat protein” value turned out to be 15.4 nM in the series with MS2 coat protein [1] and 15.9 nM in the series on MS2 coat protein [2].
As for “ACUUAUGAAGGAUAUACUAACAACAUACACUCAACACACACACAUGAGGAUCACCCAUGUAGAAGGUCAAACAU [JR_Exc002_Sub1205]”, the “apparent KD of MS2 coat protein” value in the series on MS2 coat protein [1] was 19.6 nM; with MS2 coat protein [2], 18.2 nM.
As for “AGAAAACAUGAGGAUCACCCAUGUCAGGAUAUCAAAAAGAAAAGAAAAGAAAGAAGAAUGAGAAGGGACAAGAA [Khasekhem(wy)]”, the “apparent KD of MS2 coat protein” value with MS2 coat protein [1] was determined as 27.5 nM; in the series with MS2 coat protein [2] it was 32.1 nM.
Regarding “AGAAAACAUGAGGAUCACCCAUGUGAGGAUAUGCGAAUAAAGAAACAAAUAAAAGAAAGCAGAAGGCACAACAA [Ex 1 Tesla 4]”, the results for the “apparent KD of MS2 coat protein” value with MS2 coat protein [1] and in the series with MS2 coat protein [2] were 31.9 nM and 36 nM, respectively.
The like results for “AGAAAGCUAGGAUAUACCUGGAGGGUUCGAAAUGAAAUAAAACAUGAGGAUCACCCAUGUAGAAGGAGCCCGAG [Veislela]” were, in that order, 42.6 nM and 28 nM.
On to “AGAAAGUCAGGAUAUACAGAAAAAAAAACGAAAAAAAAUCUGUAGAAGGGACAUGAGGAUCACCCAUGUAAAGA [Mat - Exclusion 4 - Mayanna - D124]”, for which the entries for the “apparent KD of MS2 coat protein” value with MS2 coat protein [1] and in the series on MS2 coat protein [2] were 66.1 nM and 36.8 nM, respectively.
Regarding “AGAAAGUCAGGAUAUAUGCGAAAAAUAAAAAAAAUAAAAACAUAGAAGGGACAUGAGGAUCACCCAUGUUAAGA [Mat - Exclusion 4 - Mayanna - D136]”, the “apparent KD of MS2 coat protein” value came to 50 nM in the series with MS2 coat protein [1] and 32 nM in the series with MS2 coat protein [2].
For “AGAAAGUCAGGAUAUGCAGAUAAAAAAACGAAAAAAAAUCUGCAGAAGGGACAUGAGGAUCACCCAUGUAAAGA [Mat - Exclusion 4 - Mayanna - D111]”, the “apparent KD of MS2 coat protein” value worked out at 52.3 nM with MS2 coat protein [1] and 40.2 nM in the series with MS2 coat protein [2].
In the same order, the values of “AGAAAGUCAGGAUAUGCGAAGGCGUCUGAUAGACGAGGCUAGCAGAAGGGACAUGAGGAUCACCCAUGUGAAGA [Mat - Exclusion 4 - Eli mod - D85]” are 55 nM and 86.4 nM.
Turning to “AGAAAGUGAGGAUAUCGAAGACUGUCGAAAAGACAGUCGAACGAGAAGGCACAUGAGGAUCACCCAUGUGAGGG [Mat - Exaclusion 4 - Eli mod - D67]”, the “apparent KD of MS2 coat protein” value stood at 76.3 nM in the series on MS2 coat protein [1] and 58.2 nM with MS2 coat protein [2].
As to “AGAAAGUGAGGAUAUUCGGAUAGGAAAACGAAAACCUAUCCGAAGAAGGCACAUGAGGAUCACCCAUGUAAAAA [Mat - Exaclusion 4 - Eli mod - D38]”, the entries for the “apparent KD of MS2 coat protein” value in the series with MS2 coat protein [1] and in the series on MS2 coat protein [2] were 33.2 nM and 37.5 nM, respectively.
As to “AGAAAGUGAGGAUAUUCGGAUAGGAAAACGAAAACCUAUCCGAAGAAGGCACAUGAGGAUCACCCAUGUAAAGA [Mat - Exaclusion 4 - Eli mod - D39]”, the “apparent KD of MS2 coat protein” value with MS2 coat protein [1] worked out at 39.6 nM; in the series on MS2 coat protein [2], 54 nM.
On to “AGAAUACAUGAGGAUCACCCAUGUGAGGAUAUGUAGAUAAAAAUAAAAUAAAAUAAAUACAGAAGGCACAAAAG [EX 1 May 19]”, for which the “apparent KD of MS2 coat protein” value stood at 61.3 nM in the series with MS2 coat protein [1] and 59.7 nM with MS2 coat protein [2].
Turning to “AGACAUACAGGAUAUACAUAGGAAAAAAAAAAAAAAAUUCAACAUGAGGAUCACCCAUGUAGAAGGGUAUGUCA [Ex2 Design 172: Random 2]”, the “apparent KD of MS2 coat protein” value with MS2 coat protein [1] was 65.5 nM; with MS2 coat protein [2] it was 69.9 nM.
“AGACAUACAGGAUAUACAUGGGAAAAAAAAAAAAAAAUUCUACAUGAGGAUCACCCAUGUAGAAGGGUAUGUCA [Ex2 Design 171: Random 1B]”: the “apparent KD of MS2 coat protein” value amounted to 81.1 nM with MS2 coat protein [1] and 31.1 nM with MS2 coat protein [2].
Take “AGAGACAGAGGAUAUACAUGAGGAUCACCCAUGUAAAAGAAAGAAAAGGGAAAGAAAAGUAGAAGGCUGAGAGA [Ruby 66]”: the “apparent KD of MS2 coat protein” value in the series with MS2 coat protein [1] is 23.6 nM; in the series on MS2 coat protein [2], 25.4 nM.
Turning to “AGAGAGAGAGGAUAUACAUGAGGAUCACCCAUGUAAAAGAAAGAAAAGGGAAAGAAAAGUAGAAGGCUCAGAGA [Ruby 65]”, the figures for the “apparent KD of MS2 coat protein” value in the series with MS2 coat protein [1] and in the series with MS2 coat protein [2] were 31.6 nM and 53.5 nM, respectively.
In the same order, the values of “AGAUAGUCAGGAUAUACGAACAAGAAAAAAGACGAGAACGGACAUGAGGAUCACCCAUGUAGAAGGGACUAGAA [Diamond 11]” are 45 nM and 28.6 nM.
On to “AGCAAGUCAGGAUAUACGAAUAAGACAAAAGACGUGAAGGGACAUGAGGAUCACCCAUGUAGAAGGGACAAGCA [LROPPY Exclusion 2 - v01_mod Fisker]”, for which the “apparent KD of MS2 coat protein” value in the series on MS2 coat protein [1] stood at 80.9 nM; in the series with MS2 coat protein [2] it was 60.5 nM.
Consider “AGCACGUCAGGAUAUACGAACACAAAGGGUAACAACAAGGGACAUGAGGAUCACCCAUGUAGAAGGGACAAGCA [Diamond 95]”, for which the “apparent KD of MS2 coat protein” value was 73.5 nM in the series with MS2 coat protein [1] and 79.2 nM in the series with MS2 coat protein [2].
Regarding “AGCGAGUAAGGAUAUCGGAAAGGACACGAAAGUGACAAAGACGAGAAGGUACAUGAGGAUCACCCAUGUAAAAA [milkweed 25]”, the “apparent KD of MS2 coat protein” value in the series with MS2 coat protein [1] is 26.8 nM; with MS2 coat protein [2], 17.8 nM.
On to “AGCUAGAGAGGAUAUACGUGAGUGAUAAAAGUCUGAUAACUACAUGAGGAUCACCCAUGUAGAAGGCUCUAGCA [Ex2 Design 166: Sub-opt 30]”, for which the “apparent KD of MS2 coat protein” value amounted to 69.1 nM in the series on MS2 coat protein [1] and 22.2 nM in the series with MS2 coat protein [2].
For “AGCUAGUCAGGAUAUACGAAAAUGAACGAAGCUGAGAAGGGACAUGAGGAUCACCCAUGUAGAAGGGACUAGCA [Diamond 34]”, the “apparent KD of MS2 coat protein” value with MS2 coat protein [1] came out at 47.7 nM; in the series on MS2 coat protein [2], 137 nM.
With “AGCUAGUCAGGAUAUACGAAAAUGAUAGAAGACGUAAGGGAACAUGAGGAUCACCCAUGUAGAAGGGACUAGCA [Diamond 47]”, the results for the “apparent KD of MS2 coat protein” value in the series on MS2 coat protein [1] and in the series on MS2 coat protein [2] were 24.7 nM and 63.1 nM, respectively.
For “AGCUAGUCAGGAUAUACGAAAAUGUAAAAAGAAGUGAAGGGACAUGAGGAUCACCCAUGUAGAAGGGACUAGAA [74%, Web mod - With 4 less C's]”, the “apparent KD of MS2 coat protein” value came out at 58 nM with MS2 coat protein [1] and 116 nM with MS2 coat protein [2].
